Here are results for one substance from article PMC3725403.

This data set concerns the target Arg224 (UniProt position 224, YHALYRYFVEL). The data set is described as follows: electrophysiology.

Broadly, the pKa is the negative logarithm of the acid dissociation constant. With “TASK-2 (K2P5.1) two-pore domain K+ channel (Mus musculus)”, the pKa is 8.37 (bath: 135 mM sodium gluconate, 1 mM potassium gluconate, 4 mM KCl, 2 mM CaCl2, 1 mM MgCl2, 105 mM sucrose, pipette: 8 mM KCl, 132 mM potassium gluconate, 1 mM MgCl2, 10 mM EGTA, 1 mM Na3ATP, 0.1 mM GT, 10 mM HEPES/Tris, 0 mV value from a fit across voltages, [K+]i/[K+]o 140/5 mM, intracellular pH 7.4); 8.15 (bath: 135 mM sodium gluconate, 1 mM potassium gluconate, 4 mM KCl, 2 mM CaCl2, 1 mM MgCl2, 105 mM sucrose, pipette: 8 mM KCl, 132 mM potassium gluconate, 1 mM MgCl2, 10 mM EGTA, 1 mM Na3ATP, 0.1 mM GT, 10 mM HEPES/Tris, membrane potential +60 mV, [K+]i/[K+]o 140/5 mM, intracellular pH 7.4); 8.76 (bath: 135 mM sodium gluconate, 1 mM potassium gluconate, 4 mM KCl, 2 mM CaCl2, 1 mM MgCl2, 105 mM sucrose, pipette: 8 mM KCl, 132 mM potassium gluconate, 1 mM MgCl2, 10 mM EGTA, 1 mM Na3ATP, 0.1 mM GT, 10 mM HEPES/Tris, membrane potential -120 mV, [K+]i/[K+]o 140/5 mM, intracellular pH 7.4); 8.0 (not stated, most extracellular Cl- replaced by sulphate, extracellular solution with most Cl- replaced by sulphate, voltage not stated, cited from earlier work).
